Data as given in IntAct's records for PubMed 16330715.

B1: Neutrophil cytosol factor 1 (Homo sapiens), P14598 (parent)
chain: MGDTFIRHIALLGFEKRFVPSQHYVYMFLVKWQDLSEKVVYRRFTEIYEFHKTLKEMFPIEAGAINPENRIIPHLPAPKWFDGQRAAENRQGTLTEYCSTLMSLPTKISRCPHLLDFFKVRPDDLKLPTDNQTKKPETYLMPKDGKSTATDITGPIILQTYRAIANYEKTSGSEMALSTGDVVEVVEKSESGWWFCQMKAKRGWIPASFLEPLDSPDETEDPEPNYAGEPYVAIKAYTAVEGDEVSLLEGEAVEVIHKLLDGWWVIRKDDVTGYFPSMYLQKSGQDVSQAQRQIKRGAPPRRSSIRNAHSIHQRSRKRLSQDAYRRNSVRFLQQRRRQARPGPQSPGSPLEEERQTQRSKPQPAVPPRPSADLILNRCSESTKRKLASAV

Variants of: B1
Details: with fak2_human PTK2B
MGDTFIRHIALLGFEKRFVPSQHYVYMFLVKWQDLSEKVVYRRFTEIYEFHKTLKEMFPIEAGAINPENRIIPHLPAPKWFDGQRAAENRQGTLTEYCSTLMSLPTKISRCPHLLDFFKVRPDDLKLPTDNQTKKPETYLMPKDGKSTATDITGPIILQTYRAIANYEKTSGSEMALSTGDVVEVVEKSESGWWFCQMKAKRGWIPASFLEPLDSPDETEDPEPNYAGEPYVAIKAYTAVEGDEVSLLEGEAVEVIHKLLDGWWVIRKDDVTGYFPSMYLQKSGQDVSQAQRQIKRGAPPRRDDIRNAHSIHQRSRKRLSQDAYRRNDVRFLQQRRRQARPGPQSPGSPLEEERQTQRSKPQPAVPPRPSADLILNRCSESTKRKLASAV [S303D;S304D;S328D] was tested, and the “effect of a mutation on the interaction” value was “increasing interaction strength”. In the case of MGDTFIRHIALLGFEKRFVPSQHYVYMFLVKWQDLSEKVVYRRFTEIYEFHKTLKEMFPIEAGAINPENRIIPHLPAPKWFDGQRAAENRQGTLTEYCSTLMSLPTKISRCPHLLDFFKVRPDDLKLPTDNQTKKPETYLMPKDGKSTATDITGPIILQTYRAIANYEKTSGSEMALSTGDVVEVVEKSESGRWFCQMKAKRGWIPASFLEPLDSPDETEDPEPNYAGEPYVAIKAYTAVEGDEVSLLEGEAVEVIHKLLDGWWVIRKDDVTGYFPSMYLQKSGQDVSQAQRQIKRGAPPRRSSIRNAHSIHQRSRKRLSQDAYRRNSVRFLQQRRRQARPGPQSPGSPLEEERQTQRSKPQPAVPPRPSADLILNRCSESTKRKLASAV [W193R], the “effect of a mutation on the interaction” value is reported as “disrupting interaction strength”.
